Consider 39 variants from the RNAGym collection of RNA variant scans (doi:10.7554/elife.90254).

To fix the notation:
B1: LINE1-full (parent)
chain: UACGUAGGUGGUUUUCCCCUGAUAGUGCUAAGGGGGCCUGGAAGUUUGGACUGGGCAGAGCUCAACACAGCGUGGCAAAGUGGCUGUGGCUAGACUGCCUCUCUGGAUUCCUCGUCACUCAGCAGGGCAUCUCUGAGAGAAAUGCC

Variants of B1 are the subject of this series. The series is described as follows: self-cleavage, relative activity (ratio to wild type); higher = more cleavage; in vitro, sequencing; the parent is a self-cleaving ribozyme.
For UACGUAGGUGGUUUUCCCCUGAUAGUGCUAAGGGGACCUUGAAGUUUGGACUGGGCAGAGCUCAACACAGCGUGGCAAAGUGGCUGUGGCUAGACUGCCUCUCUGGAUUCCUCGUCACUCAGCAGGGCAUCUCUGAGAGAAAUGCC [G36A G40U], the self-cleavage turned out to be 0.66.

Take UACGUAGGUGGUUUUCCCCUGAUAGUGCUAAGGGGCCCUGGAAGUUUGGACUGGGCAGAGCUCAACACAGCGUGGCAAAGUGGCUGUGGCUAGGCUGCCUCUCUGGAUUCCUCGUCACUCAGCAGGGCAUCUCUGAGAGAAAUGCC [G36C A94G]: the self-cleavage is 0.32. The result for UACGUAGGUGGUUUUCCCCUGAUAGUGCUAAGGGGACCUGGAAGUUUGGACUGGGCAGAGCUCAACACAGCGUGGCAAGGUGGCUGUGGCUAGACUGCCUCUCUGGAUUCCUCGUCACUCAGCAGGGCAUCUCUGAGAGAAAUGCC [G36A A79G] reads 0.96; that for UACGUAGGUGGUUUUCCCCUGAUAGUGCUAAGGGGACCUGGAAGUUUGGACUGGGCAGAGCUCAACACAGCGUGGCAAAGUGGCUGUGGCUAGACUGCCUCUCUGGAUUCCCCGUCACUCAGCAGGGCAUCUCUGAGAGAAAUGCC [G36A U112C], 1.29. As for UACGUAGGUGGUUUUCCCCUGAUAGUGCUAAGGGGACCUGGAAGUUUGGACUGGGCAGAGCUCAACACAGCGUGGCGAAGUGGCUGUGGCUAGACUGCCUCUCUGGAUUCCUCGUCACUCAGCAGGGCAUCUCUGAGAGAAAUGCC [G36A A77G], the self-cleavage was 1.35. The result for UACGUAGGUGGUUUUCCCCUGAUAGUGCUAAGGGGACCUGGAAGUUUGGACUGGGCAGAGCUCAACACAGCGUGGCAAAGUGGCUGUGGCUAGACUGCCUCUCUGGAUUCCUCGUCACUCAGCAGGGCAUCUCUGAGAGAGAUGCC [G36A A141G] reads 1.38. Next, UACGUAGGUGGUUUUCCCCUGAUAGUGCUAAGGGGACCUGGAAGUUCGGACUGGGCAGAGCUCAACACAGCGUGGCAAAGUGGCUGUGGCUAGACUGCCUCUCUGGAUUCCUCGUCACUCAGCAGGGCAUCUCUGAGAGAAAUGCC [G36A U47C]: 0.9; UACGUAGGUGGUUUUCCCCUGAUAGUGCUAAGGGGCCCUGGAAGUUUGGACUGGGCAGAGCUCAACACAGGGUGGCAAAGUGGCUGUGGCUAGACUGCCUCUCUGGAUUCCUCGUCACUCAGCAGGGCAUCUCUGAGAGAAAUGCC [G36C C71G]: 0.15. The result for UACGUAGGUGGUUUUCCCCUGAUAGUGCUAAGGGGACCUGGAAGUUUGGACUGGGCAGAGCUCAACACAGCGUGGCAAAGUGGCUGUGGCUAGACUGCCUCUCUGGAUUCCUCGCCACUCAGCAGGGCAUCUCUGAGAGAAAUGCC [G36A U115C] reads 1.53; that for UACGUAGGUGGUUUUCCCCUGAUAGUGCUAAGGGGACCUGGAAGUUUGGACUGGGCAGAGCUCAACACAGCGUGGCAAAGUGGCUGUGGCUAGACUGCCUCUCUGGAUUCCUCGACACUCAGCAGGGCAUCUCUGAGAGAAAUGCC [G36A U115A], 1.39. In the case of UACGUAGGUGGUUUUCCCCUGAUAGUGCUAAGGGGACCUGGAAGUUUGGACUGGGCAGAGCUCAACACGGCGUGGCAAAGUGGCUGUGGCUAGACUGCCUCUCUGGAUUCCUCGUCACUCAGCAGGGCAUCUCUGAGAGAAAUGCC [G36A A69G], the self-cleavage was determined as 0.34. The result for UACGUAGGUGGUUUUCCCCUGAUAGUGCUAAGGGGACCUGGAAGUUUGGACUGGGCAGAGCUCAACACAGCGUGGCAAAGUGGCUGUGGCUAGAGUGCCUCUCUGGAUUCCUCGUCACUCAGCAGGGCAUCUCUGAGAGAAAUGCC [G36A C95G] reads 0.02; that for UACGUAGGUGGUUUUCCCCUGAUAGUGCUAAGGGGACCUGGAAGUUUGGACUGGGCAGAGCUCAACACAGCGUGGCAAAGUGGCUGUGGCUAGACUGCCUCUCUAGAUUCCUCGUCACUCAGCAGGGCAUCUCUGAGAGAAAUGCC [G36A G105A], 1.46; that for UACGUAGGUGGUUUUCCCCUGAUAGUGCUAAGGGGCCCUGGAAGUUUGGACUGGGCGGAGCUCAACACAGCGUGGCAAAGUGGCUGUGGCUAGACUGCCUCUCUGGAUUCCUCGUCACUCAGCAGGGCAUCUCUGAGAGAAAUGCC [G36C A57G], 0.9.

UACGUAGGUGGUUUUCCCCUGAUAGUGCUAAGGGGCCCUGGAAGUUUGGACUGGGCUGAGCUCAACACAGCGUGGCAAAGUGGCUGUGGCUAGACUGCCUCUCUGGAUUCCUCGUCACUCAGCAGGGCAUCUCUGAGAGAAAUGCC [G36C A57U]: the self-cleavage worked out at 0.07. Next, UACGUAGGUGGUUUUCCCCUGAUAGUGCUAAGGGGACCUGGAAGUUUGGACUGGGCAGAGCUCAACACAGCGUGGCAAAGUGGCUGUGGCUAGACUGCCUCUCUGGAUUCCUCGUCACUCAGCAGGGCAUCUCUGAGAGAAACGCC [G36A U143C]: 1.57. Next, UACGUAGGUGGUUUUCCCCUGAUAGUGCUAAGGGGACCUGGAAGUUUGGACUGGGCAGAGCUCAACACAGCGUGGCAAAGUGGUUGUGGCUAGACUGCCUCUCUGGAUUCCUCGUCACUCAGCAGGGCAUCUCUGAGAGAAAUGCC [G36A C84U]: 0.15; UACGUAGGUGGUUUUCCCCUGAUAGUGCUAAGGGGACCUGGGAGUUUGGACUGGGCAGAGCUCAACACAGCGUGGCAAAGUGGCUGUGGCUAGACUGCCUCUCUGGAUUCCUCGUCACUCAGCAGGGCAUCUCUGAGAGAAAUGCC [G36A A42G]: 1.07. UACGUAGGUGGUUUUCCCCUGAUAGUGCUAAGGGGCCCUGGAAGUUUGGACUGGGCAGAGCUCAACACAGCGUGGCAAAGUGGCUGUGGCUAGACUGCCUCUCUGGAUUCCUCGUCACUCGGCAGGGCAUCUCUGAGAGAAAUGCC [G36C A121G]: the self-cleavage was 1.39. Next, UACGUAGGUGGUUUUCCCCUGAUAGUGCUAAGGGGACCUGGAAGUUUGGACUGGGCAGAGCUCAACACAGCGUGGCAAAGUGGCUGUGGCUAGACUGCCUCUCUGGAUUCCUCGUCACUCAGCAGGGCACCUCUGAGAGAAAUGCC [G36A U130C]: 1.27; UACGUAGGUGGUUUUCCCCUGAUAGUGCUAAGGGGCCCUGGAAGUUUGGACUGGGCAGAGCUCAACACAGCGUGGCGAAGUGGCUGUGGCUAGACUGCCUCUCUGGAUUCCUCGUCACUCAGCAGGGCAUCUCUGAGAGAAAUGCC [G36C A77G]: 1.6; UACGUAGGUGGUUUUCCCCUGAUAGUGCUAAGGGGACCUGGAAGUUUGGACUGGGCAGAGCUCAACACAGCGUGGCAAAGUGGCUGUGGCUAGACUGCCUCUCUGGAUUCCUCGUCAGUCAGCAGGGCAUCUCUGAGAGAAAUGCC [G36A C118G]: 1.04. Consider UACGUAGGUGGUUUUCCCCUGAUAGUGCUAAGGGGACCUGGAAGUUUGGACUGGGCAGAGCUCAACACAGCGUGGCAAAGUGGCUGUGGCUAGACUGCCUCUCUGGAUUCCUCGUCACUCAGCUGGGCAUCUCUGAGAGAAAUGCC [G36A A124U], for which the self-cleavage amounted to 0.31. The result for UACGUAGGUGGUUUUCCCCUGAUAGUGCUAAGGGGACCUGGAAGUUUGGACUGGGCAGAGCUCAACACAGCGUGGCAAAGUGGCUGUGGCUAGACUGCCUCUCUGGAUUCCUCGUCACUCAGCCGGGCAUCUCUGAGAGAAAUGCC [G36A A124C] reads 2.16; that for UACGUAGGUGGUUUUCCCCUGAUAGUGCUAAGGGGACCUGGAAGUUUGGACUGGGCAGAGCUCAACACAGCGUGGCAAAGUGGCUGUGGCUAGACUGCCUCUCUGGAUCCCUCGUCACUCAGCAGGGCAUCUCUGAGAGAAAUGCC [G36A U109C], 0.75; that for UACGUAGGUGGUUUUCCCCUGAUAGUGCUAAGGGGCCCUGGAAGUUUGGACUGGGCAGAGCUCAACACAGCGUGGCAAAGUGGCUGUGGCUAGACUGCCUCUCUGGAUUCCUCGUCACUCAGCAGGGCAUCUCUGAGAGAGAUGCC [G36C A141G], 1.36. In the case of UACGUAGGUGGUUUUCCCCUGAUAGUGCUAAGGGGACCUGGAAGUUUGGACUGGGCAGAGCUCAACACAGCGUGGCAAAGUGGCUGUGGCUAGACUGCCUCUCUGGAUUCCUCGUCACCCAGCAGGGCAUCUCUGAGAGAAAUGCC [G36A U119C], the self-cleavage is 2.42.

UACGUAGGUGGUUUUCCCCUGAUAGUGCUAAGGGGACCUGGAAGUUUGGACUGGGCAGAGCUCAACACAGCGUGGCAAAGUGGCUGUGGCUAGACUGCCUCUCUGGAUUCCUCGUCACACAGCAGGGCAUCUCUGAGAGAAAUGCC [G36A U119A]: the self-cleavage stood at 1.36. The result for UACGUAGGUGGUUUUCCCCUGAUAGUGCUAAGGGGACCUGGAAGUCUGGACUGGGCAGAGCUCAACACAGCGUGGCAAAGUGGCUGUGGCUAGACUGCCUCUCUGGAUUCCUCGUCACUCAGCAGGGCAUCUCUGAGAGAAAUGCC [G36A U46C] reads 1.32. The result for UACGUAGGUGGUUUUCCCCUGAUAGUGCUAAGGGGACCUGGAGGUUUGGACUGGGCAGAGCUCAACACAGCGUGGCAAAGUGGCUGUGGCUAGACUGCCUCUCUGGAUUCCUCGUCACUCAGCAGGGCAUCUCUGAGAGAAAUGCC [G36A A43G] reads 1.07; that for UACGUAGGUGGUUUUCCCCUGAUAGUGCUAAGGGGACAUGGAAGUUUGGACUGGGCAGAGCUCAACACAGCGUGGCAAAGUGGCUGUGGCUAGACUGCCUCUCUGGAUUCCUCGUCACUCAGCAGGGCAUCUCUGAGAGAAAUGCC [G36A C38A], 1.18; that for UACGUAGGUGGUUUUCCCCUGAUAGUGCUAAGGGGACCUGGAAGUUUGGACUGGGCAGAGCUCAACACAGCGUGGCAAAGUGGCUGUGGCUAGACUGCCUCUCUGGAUUCCUUGUCACUCAGCAGGGCAUCUCUGAGAGAAAUGCC [G36A C113U], 1.02.

For the variant UACGUAGGUGGUUUUCCCCUGAUAGUGCUAAGGGGACCUGGAAGUUUGGACUGGGCAGAGCUCAACACAGCGUGGCAAAGUGGCUGUGUCUAGACUGCCUCUCUGGAUUCCUCGUCACUCAGCAGGGCAUCUCUGAGAGAAAUGCC [G36A G89U], the self-cleavage amounted to 0.01. The result for UACGUAGGUGGUUUUCCCCUGAUAGUGCUAAGGGGCCCUGGAAGUUUGGACUGGGCAGAGCUCAACACAGCGUGGCAAAGUGGCUGUGGCUAGACUGCCUCUCUGGAUUCCUCGUCACUCAGCAGGGCAUCUCUGAGAGAAAUGCG [G36C C146G] reads 1.21; that for UACGUAGGUGGUUUUCCCCUGAUAGUGCUAAGGGGCCCUGGAAGUUUGGACUGGGCAGAGCUCAACACAGCGUGGCAAAGUGGCUGUGGCUAGACUGCCUCUCUGGAUUCCUCGUCACUCAGCAGGGCAUCUCUGAGAGAAAUGCU [G36C C146U], 1.29.

As to UACGUAGGUGGUUUUCCCCUGAUAGUGCUAAGGGGACCUGGAAGCUUGGACUGGGCAGAGCUCAACACAGCGUGGCAAAGUGGCUGUGGCUAGACUGCCUCUCUGGAUUCCUCGUCACUCAGCAGGGCAUCUCUGAGAGAAAUGCC [G36A U45C], the self-cleavage was found to be 1.81. The result for UACGUAGGUGGUUUUCCCCUGAUAGUGCUAAGGGGACCUGGAAGUUUGGACUGGGCAGAGCCCAACACAGCGUGGCAAAGUGGCUGUGGCUAGACUGCCUCUCUGGAUUCCUCGUCACUCAGCAGGGCAUCUCUGAGAGAAAUGCC [G36A U62C] reads 0.05; that for UACGUAGGUGGUUUUCCCCUGAUAGUGCUAAGGGGACCUGGAAGUUUGGACUGGGCAGAGCUCAACACAGCGUGGCAAAGUGGCUGUGGCUAGACUGCCUCUCUGGAUUCCUCGUCGCUCAGCAGGGCAUCUCUGAGAGAAAUGCC [G36A A117G], 1.34; that for UACGUAGGUGGUUUUCCCCUGAUAGUGCUAAGGGGACCUGGAAGUUUGGACAGGGCAGAGCUCAACACAGCGUGGCAAAGUGGCUGUGGCUAGACUGCCUCUCUGGAUUCCUCGUCACUCAGCAGGGCAUCUCUGAGAGAAAUGCC [G36A U52A], 1.21.
